Measurements published in US20200173960A1.

Legend:
trastuzumab [1] = experiment: method not stated; affinity listed for the purchased ADA
trastuzumab [2] = experiment: ELISA Kit B (HER2 capture, anti-human IgG Fc detection) of trastuzumab 0.5 ug/mL pre-bound with ADA; trastuzumab:ADA 10:1
trastuzumab [3] = experiment: ELISA Kit A (anti-idiotype capture) of trastuzumab 0.5 ug/mL pre-bound with ADA; trastuzumab:ADA 1:100
trastuzumab [4] = experiment: ELISA Kit A (anti-idiotype capture) of trastuzumab 0.5 ug/mL pre-bound with ADA; trastuzumab:ADA 1:1
trastuzumab [5] = experiment: ELISA Kit A (anti-idiotype capture) of trastuzumab 0.5 ug/mL pre-bound with ADA; trastuzumab:ADA 1:2
trastuzumab [6] = experiment: ELISA Kit A (anti-idiotype capture) of trastuzumab 0.5 ug/mL pre-bound with ADA; trastuzumab:ADA 10:1
trastuzumab [7] = experiment: ELISA Kit B (HER2 capture, anti-human IgG Fc detection) of trastuzumab 0.5 ug/mL pre-bound with ADA; trastuzumab:ADA 1:10
trastuzumab [8] = experiment: ELISA Kit A (anti-idiotype capture) of trastuzumab 50 ug/mL pre-bound with ADA; trastuzumab:ADA 1:1
trastuzumab [9] = experiment: ELISA Kit B (HER2 capture, anti-human IgG Fc detection) of trastuzumab 0.5 ug/mL pre-bound with ADA; trastuzumab:ADA 1:1
trastuzumab [10] = experiment: ELISA Kit A (anti-idiotype capture) of trastuzumab 50 ug/mL pre-bound with ADA; trastuzumab:ADA 100:1
trastuzumab [11] = experiment: ELISA Kit A (anti-idiotype capture) of trastuzumab 0.5 ug/mL pre-bound with ADA; trastuzumab:ADA 5:1
trastuzumab [12] = experiment: ELISA Kit B (HER2 capture, anti-human IgG Fc detection) of trastuzumab 0.5 ug/mL pre-bound with ADA; trastuzumab:ADA 1:100
trastuzumab [13] = experiment: cell-based or functional assay
trastuzumab [14] = experiment: ELISA Kit A (anti-idiotype capture) of trastuzumab 0.5 ug/mL pre-bound with ADA; trastuzumab:ADA 1:50
trastuzumab [15] = experiment: ELISA Kit A (anti-idiotype capture) of trastuzumab 50 ug/mL pre-bound with ADA; trastuzumab:ADA 10:1
trastuzumab [16] = experiment: ELISA Kit A (anti-idiotype capture) of trastuzumab 50 ug/mL pre-bound with ADA; trastuzumab:ADA 5:1
trastuzumab [17] = experiment: ELISA Kit A (anti-idiotype capture) of trastuzumab 0.5 ug/mL pre-bound with ADA; trastuzumab:ADA 1:5
trastuzumab [18] = experiment: ELISA Kit A (anti-idiotype capture) of trastuzumab 0.5 ug/mL pre-bound with ADA; trastuzumab:ADA 1:10

Accuracy (%) Kit B (trastuzumab [2]) | Accuracy (%) ELISA (trastuzumab [4]) | Accuracy (%) ELISA (trastuzumab [6]) | Accuracy (%) Kit B (trastuzumab [7]) | Accuracy (%) ELISA (trastuzumab [8]) | Accuracy (%) Kit B (trastuzumab [9]) | Accuracy (%) ELISA (trastuzumab [10]) | Accuracy (%) ELISA (trastuzumab [11]) | Accuracy (%) nSMOL; trastuzumab 0.5 ug/mL; trastuzumab:ADA 1:1 (trastuzumab [13]) | Accuracy (%) nSMOL; trastuzumab 0.5 ug/mL; trastuzumab:ADA 1:2 (trastuzumab [13]) | Accuracy (%) nSMOL; trastuzumab 0.5 ug/mL; trastuzumab:ADA 1:5 (trastuzumab [13]) | Accuracy (%) nSMOL; trastuzumab 0.5 ug/mL; trastuzumab:ADA 1:10 (trastuzumab [13]) | Accuracy (%) nSMOL; trastuzumab 0.5 ug/mL; trastuzumab:ADA 1:50 (trastuzumab [13]) | Accuracy (%) nSMOL; trastuzumab 0.5 ug/mL; trastuzumab:ADA 1:100 (trastuzumab [13]) | Accuracy (%) nSMOL; trastuzumab 0.5 ug/mL; trastuzumab:ADA 5:1 (trastuzumab [13]) | Accuracy (%) nSMOL; trastuzumab 0.5 ug/mL; trastuzumab:ADA 10:1 (trastuzumab [13]) | Accuracy (%) nSMOL; trastuzumab 50 ug/mL; trastuzumab:ADA 1:1 (trastuzumab [13]) | Accuracy (%) nSMOL; trastuzumab 50 ug/mL; trastuzumab:ADA 5:1 (trastuzumab [13]) | Accuracy (%) nSMOL; trastuzumab 50 ug/mL; trastuzumab:ADA 10:1 (trastuzumab [13]) | Accuracy (%) nSMOL; trastuzumab 50 ug/mL; trastuzumab:ADA 100:1 (trastuzumab [13]) | Substance | also measured
95.5% | 84.1% | 95.2% | 6.4% | 81.4% | 42.4% | 84.9% | 102% | 106% | 102% | 93% | 107% | 86% | 84.8% | 113% | 109% | 92.9% | 92.8% | 102% | 89.5% | HCA168 (Fab) | Kd (trastuzumab [1]): 0.02 nM; Accuracy (%) ELISA (trastuzumab [3]): 72.2%; Accuracy (%) ELISA (trastuzumab [5]): 82.1%; Accuracy (%) Kit B (trastuzumab [12]): 3.32%; Accuracy (%) nSMOL; trastuzumab first immobilized on Protein A; trastuzumab:ADA 1:1 (trastuzumab [13]): 94.5%; Accuracy (%) nSMOL; trastuzumab first immobilized on Protein A; trastuzumab:ADA 5:1 (trastuzumab [13]): 94.3%; Accuracy (%) nSMOL; trastuzumab first immobilized on Protein A; trastuzumab:ADA 10:1 (trastuzumab [13]): 101%; Accuracy (%) nSMOL; trastuzumab first immobilized on Protein A; trastuzumab:ADA 100:1 (trastuzumab [13]): 107%; Accuracy (%) ELISA (trastuzumab [14]): 64.5%; Accuracy (%) ELISA (trastuzumab [15]): 84.4%; Accuracy (%) ELISA (trastuzumab [16]): 66.8%; Accuracy (%) ELISA (trastuzumab [17]): 67.7%; Accuracy (%) ELISA (trastuzumab [18]): 62.2%
88.9% | 0.632% | 102% | 1.36% | 2.75% | 3.69% | 83.5% | 96.9% | 102% | 97.8% | 108% | 109% | 115% | 100% | 103% | 105% | 102% | 105% | 110% | 102% | MAB11130 (antibody) | Accuracy (%) Kit B (trastuzumab [12]): 4.49%; Accuracy (%) nSMOL; trastuzumab first immobilized on Protein A; trastuzumab:ADA 1:1 (trastuzumab [13]): 96.2%; Accuracy (%) nSMOL; trastuzumab first immobilized on Protein A; trastuzumab:ADA 5:1 (trastuzumab [13]): 108%; Accuracy (%) nSMOL; trastuzumab first immobilized on Protein A; trastuzumab:ADA 10:1 (trastuzumab [13]): 105%; Accuracy (%) nSMOL; trastuzumab first immobilized on Protein A; trastuzumab:ADA 100:1 (trastuzumab [13]): 109%; Accuracy (%) ELISA (trastuzumab [15]): 74.2%; Accuracy (%) ELISA (trastuzumab [16]): 72.8%
97.4% | 110% | 103% | 0.962% | 84.5% | 46% | 98% | 112% | 96.1% | 84.4% | 78.7% | 81% | 89.5% | 74.1% | 98.7% | 98.4% | 88% | 99.4% | 103% | 96.2% | HCA177 (antibody) | Kd (trastuzumab [1]): 0.02 nM; Accuracy (%) ELISA (trastuzumab [3]): 106%; Accuracy (%) ELISA (trastuzumab [5]): 99.9%; Accuracy (%) nSMOL; trastuzumab first immobilized on Protein A; trastuzumab:ADA 1:1 (trastuzumab [13]): 89.2%; Accuracy (%) nSMOL; trastuzumab first immobilized on Protein A; trastuzumab:ADA 5:1 (trastuzumab [13]): 97.3%; Accuracy (%) nSMOL; trastuzumab first immobilized on Protein A; trastuzumab:ADA 10:1 (trastuzumab [13]): 103%; Accuracy (%) nSMOL; trastuzumab first immobilized on Protein A; trastuzumab:ADA 100:1 (trastuzumab [13]): 94.7%; inhibitory effect on quantification values (nSMOL), ratio 1:1 (trastuzumab [13]): 10%; Accuracy (%) ELISA (trastuzumab [14]): 112%; Accuracy (%) ELISA (trastuzumab [15]): 85.3%; Accuracy (%) ELISA (trastuzumab [16]): 92%; Accuracy (%) ELISA (trastuzumab [17]): 99.4%; Accuracy (%) ELISA (trastuzumab [18]): 108%
